Paper doi:10.1101/2020.10.05.326918 (bioRxiv, 2020)

T1: MED27 (Mus musculus (endogenous in CH12 cells), UniProt Q9DB40 1-311)
T1 sequence (looked up): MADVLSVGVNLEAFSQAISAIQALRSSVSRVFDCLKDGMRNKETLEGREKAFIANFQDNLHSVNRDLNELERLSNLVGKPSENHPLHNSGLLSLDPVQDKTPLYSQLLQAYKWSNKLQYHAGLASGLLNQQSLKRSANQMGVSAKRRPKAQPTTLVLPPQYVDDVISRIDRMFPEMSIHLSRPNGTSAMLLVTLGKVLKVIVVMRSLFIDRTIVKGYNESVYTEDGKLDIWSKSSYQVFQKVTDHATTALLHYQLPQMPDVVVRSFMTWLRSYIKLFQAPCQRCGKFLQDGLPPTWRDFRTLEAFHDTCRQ

T2: MED17 (Mus musculus (endogenous in CH12 cells), UniProt Q8VCD5 1-649)
T2 sequence (looked up): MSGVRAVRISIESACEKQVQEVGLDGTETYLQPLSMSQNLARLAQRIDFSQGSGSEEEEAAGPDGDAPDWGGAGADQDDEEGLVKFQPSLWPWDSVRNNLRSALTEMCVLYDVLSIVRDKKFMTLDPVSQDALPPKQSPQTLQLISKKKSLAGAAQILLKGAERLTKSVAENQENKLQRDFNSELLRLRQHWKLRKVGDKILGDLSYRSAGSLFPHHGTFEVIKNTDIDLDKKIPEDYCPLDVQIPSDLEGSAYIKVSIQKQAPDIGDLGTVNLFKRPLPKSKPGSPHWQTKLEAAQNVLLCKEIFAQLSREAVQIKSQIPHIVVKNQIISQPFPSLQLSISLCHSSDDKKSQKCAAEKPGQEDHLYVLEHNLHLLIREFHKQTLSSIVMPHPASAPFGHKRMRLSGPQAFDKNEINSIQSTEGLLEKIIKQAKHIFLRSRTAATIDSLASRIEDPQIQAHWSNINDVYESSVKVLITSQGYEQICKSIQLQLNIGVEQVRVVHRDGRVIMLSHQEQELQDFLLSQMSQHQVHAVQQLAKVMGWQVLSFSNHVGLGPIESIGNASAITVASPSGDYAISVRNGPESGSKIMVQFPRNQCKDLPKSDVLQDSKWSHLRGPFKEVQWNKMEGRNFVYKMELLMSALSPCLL

T3: MED23 (Mus musculus (endogenous in CH12 cells), UniProt Q80YQ2 1-1367)
T3 sequence (looked up): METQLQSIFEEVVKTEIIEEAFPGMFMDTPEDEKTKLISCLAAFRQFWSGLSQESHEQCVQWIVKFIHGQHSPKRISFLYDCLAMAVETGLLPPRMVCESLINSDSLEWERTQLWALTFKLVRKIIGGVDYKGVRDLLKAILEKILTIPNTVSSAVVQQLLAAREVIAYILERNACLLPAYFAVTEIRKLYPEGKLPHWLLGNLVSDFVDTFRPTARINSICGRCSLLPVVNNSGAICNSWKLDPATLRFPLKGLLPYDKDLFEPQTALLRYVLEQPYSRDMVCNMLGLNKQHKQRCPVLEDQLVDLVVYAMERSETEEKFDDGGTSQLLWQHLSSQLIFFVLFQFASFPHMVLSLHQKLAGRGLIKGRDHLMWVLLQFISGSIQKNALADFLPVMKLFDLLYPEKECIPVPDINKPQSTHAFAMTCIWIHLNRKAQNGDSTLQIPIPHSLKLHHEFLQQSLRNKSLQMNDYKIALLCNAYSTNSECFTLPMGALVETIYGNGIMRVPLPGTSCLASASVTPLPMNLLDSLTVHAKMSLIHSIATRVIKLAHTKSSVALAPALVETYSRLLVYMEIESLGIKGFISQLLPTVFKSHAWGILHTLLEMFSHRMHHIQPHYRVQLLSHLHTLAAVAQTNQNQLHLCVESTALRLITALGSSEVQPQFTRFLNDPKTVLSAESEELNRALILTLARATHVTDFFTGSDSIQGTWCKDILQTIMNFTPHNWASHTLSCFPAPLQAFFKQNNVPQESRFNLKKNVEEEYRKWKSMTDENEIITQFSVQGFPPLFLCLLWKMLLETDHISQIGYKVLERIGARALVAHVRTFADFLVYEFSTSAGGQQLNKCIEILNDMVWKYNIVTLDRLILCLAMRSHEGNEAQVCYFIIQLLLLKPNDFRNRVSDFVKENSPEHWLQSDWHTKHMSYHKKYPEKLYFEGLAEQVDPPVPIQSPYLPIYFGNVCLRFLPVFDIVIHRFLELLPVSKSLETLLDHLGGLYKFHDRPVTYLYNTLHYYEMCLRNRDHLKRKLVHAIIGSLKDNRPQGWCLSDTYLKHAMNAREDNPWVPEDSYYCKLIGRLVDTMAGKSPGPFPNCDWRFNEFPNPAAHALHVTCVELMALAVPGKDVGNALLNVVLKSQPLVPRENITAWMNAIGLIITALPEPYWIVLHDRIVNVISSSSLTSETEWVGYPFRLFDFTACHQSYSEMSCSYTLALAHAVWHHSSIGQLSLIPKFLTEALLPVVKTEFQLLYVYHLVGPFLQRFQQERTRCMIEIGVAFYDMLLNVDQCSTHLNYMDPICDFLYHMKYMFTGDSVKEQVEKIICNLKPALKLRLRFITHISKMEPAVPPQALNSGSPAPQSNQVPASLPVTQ

B1: MED24 (natural protein, Mus musculus (endogenous in CH12 cells), UniProt Q99K74 1-987, looked up)
chain: MKVVNLKQAILQAWKERWSDYQWAINMKKFFPKGATWDILNLAEALLEQAMIGPSPNPLILSYLKYAISSQMVSCSSVLTAISKFDDFSRDLCVQALLDIMDMFCDRLSCHGKAEECIGLCRALLSALHWLLRCTAASAERLQEGLEAGTPAPGEKQLALCLQCLEKTLSSTKNRALLHIAKLEEASSWTAIEHSLLKLGEILANLSNPQLRSQAERCGTLIRSIPSMLSVHSEQLHKTGFPTIHALILLEGTMNLTGEMQPLVEQLMMVKRMQHIPTPLFVLEIWKACFVGLIESPEGTQELKWTAFTYLKIPQVLVKLKKYFHGEKDFTEDVNCAFEFLLKLTPLLDKADQRCNCDCTNFLLQECNKQGLLSEVNFASLVGKRTADRDPQLKSSENANIQPNPGLILRAEPTVTNILKTMDADHSKSPEGLLGVLGHMLSGKSLDLLLAAAAATGKLKSFARKFINLNEFTTHGSGESTKTASVRALLFDISFLMLCHVAQTYGSEVILSESSSGEEVPFFETWMQTCMPEEGKILNPDHPCFRPDSTKVESLVALLNNSSEMKLVQMKWHEACLSISAAILEILNAWENGVLAFESIQKITDNIKGKVCSLAVCAVAWLVAHVRMLGLDEREKSLQMIRQLAGPLYSENTLQFYNERVVIMNSILEHMCADVLQQTATQIKFPSTGVDTMPYWNLLPPKRPIKEVLTDIFAKVLEKGWVDSRSIHILDTLLHMGGVYWFCNNLIKELLKETRKEHTLRAVQLLYSIFCLDMQQVTLVLLGHILPGLLTDSSKWHSLMDPPGTALAKLAVWCALSSYSSHKGQASSRQKKRHREDIEDYVSLFPVEDMQPSKLMRLLSSSDDDANILSSPTDRSMNSSLSASQLHTVNMRDPLNRVLANLFLLISSILGSRTAGPHTQFVQWFMEECVGCLEQDSRGSILQFMPFTTVSELVKVSAMSSPKVVLAITDLSLPLGRQVAAKAIAAL
B2: MED4 (natural protein, Mus musculus (endogenous in CH12 cells), UniProt Q9CQA5 1-270, looked up)
chain: MAASSSGEKEKERMGGVSGMAGLGSTRERLLSALEDLEVLSRELIEMLAISRNQKLLQLEEENQVLELLIHRDGDFQELMKLALNQGKVHHEMQALEKEVEKRDSDIQQLQKQLKEAEQILATAVYQAKEKLKSIEKARKGAISSEEIIKYAHRISASNAVCAPLTWVPGDPRRPYPTDLEMRSGLLGQMNNPSTSGVNGHLPGDALAAGRLPDVLAPQYPWQSNDMSVNMLPPNHSSDFLLEPPGHNKENEDDVEVMSTDSSSSSSDSD
B3: MED20 (natural protein, Mus musculus (endogenous in CH12 cells), UniProt Q9R0X0 1-212, looked up)
chain: MGVTCVSQMPVAEGKSLQQTVELLTKKLEMLGAEKQGTFCVDCETYHTAASTLGSQGQAGKLMYVMHNSEYPLSCFALFENGPCLIADTNFDVLMVKLKGFFQSAKASKIETRGTRYQYCDFLVKVGTVTMGPSARGISVEVEYGPCVVASDCWSLLLEFLQSFLGSHAPGAPTVFGNRHDAVYGPADTMIQYMELFNKIRKQQQVPVAGIR
B4: MED16 (natural protein, Mus musculus (endogenous in CH12 cells), UniProt Q6PGF3 1-828, looked up)
chain: MDLAYVCEWEKWAKSTYCPSLPLACAWSCRNLIAFTTDLRNDDQDLTHMIHILDTEHPWEVHSVSSGHSEAITCLEWDQSGSRLLSADADGQIKCWSMADHLANSWESSVGSQVEGDPIVALSWLHNGVKLALHVEKSGASSFGEKFSRVKFSPSLTLFGGKPMEGWIAVTVSGLVTVSLLKPSGQVLTSTESLCRLRGRVALADIAFTGGGNIVVAAADGSSASPVKFYKVCVSVVSEKCRIDTEILPSLFMRCTTDPNRKDRFPAITHLKFLARDMSEQVLLCASSQTSSLVECWSLRKEGLPVNNIFQQISPVVGDKQPMILKWRILSATNDLDRVSAVALPKLPISLTNTDLKVASDTQFYPGLGLALAFQDGSVHMVHRLSLQTMAVFYSSAPRSLDEPALKRPRTTCPAVHFKAMQLSWTSLALVGIDNHGKLSMLRISPSLGHPLEPKLALQHLLFLLEYCMVTGYDWWDILLHVQPGMVQSLVERLHEEYTRQKPALQQVLSTRILAMKASLCKLSPCTVARVCDYHTKLFLMAITSTLKSLLRPHFLNTPDKSPGDRLAEICAKITDVDIDKVMINLKTEEFVLDMNTLQALQQLLQWVGDFVLYLLVSLPNQGSPLRPGHSFLRDGTSLGMLRELMVVIRIWGLLKPSCLPVYTATSDTQDSMSLLFRLLTKLWICCRDEGAASEPDEGLVDECCLLPSQLLVPNLDWLPASDGLVSRLQPKQPLRLRFGRAPTLPSSTSTLQLDGLTRAPGQPKIDHLRRLHLGAYPTEECKACTRCGCVTMLKSPNKTTAVTQWEQRWIKNCLCGGLWRRVPLSCS

Columns and labels:
Experiment in all cases: cryo-EM structure
MED1 = MED1 (Mus musculus (endogenous in CH12 cells), UniProt Q925J9 1-1575)
MED27 = target: T1, MED27
MED17 = target: T2, MED17
MED23 = target: T3, MED23
MED24 = target: B1

Sequence of MED1 (Q925J9 whole entry): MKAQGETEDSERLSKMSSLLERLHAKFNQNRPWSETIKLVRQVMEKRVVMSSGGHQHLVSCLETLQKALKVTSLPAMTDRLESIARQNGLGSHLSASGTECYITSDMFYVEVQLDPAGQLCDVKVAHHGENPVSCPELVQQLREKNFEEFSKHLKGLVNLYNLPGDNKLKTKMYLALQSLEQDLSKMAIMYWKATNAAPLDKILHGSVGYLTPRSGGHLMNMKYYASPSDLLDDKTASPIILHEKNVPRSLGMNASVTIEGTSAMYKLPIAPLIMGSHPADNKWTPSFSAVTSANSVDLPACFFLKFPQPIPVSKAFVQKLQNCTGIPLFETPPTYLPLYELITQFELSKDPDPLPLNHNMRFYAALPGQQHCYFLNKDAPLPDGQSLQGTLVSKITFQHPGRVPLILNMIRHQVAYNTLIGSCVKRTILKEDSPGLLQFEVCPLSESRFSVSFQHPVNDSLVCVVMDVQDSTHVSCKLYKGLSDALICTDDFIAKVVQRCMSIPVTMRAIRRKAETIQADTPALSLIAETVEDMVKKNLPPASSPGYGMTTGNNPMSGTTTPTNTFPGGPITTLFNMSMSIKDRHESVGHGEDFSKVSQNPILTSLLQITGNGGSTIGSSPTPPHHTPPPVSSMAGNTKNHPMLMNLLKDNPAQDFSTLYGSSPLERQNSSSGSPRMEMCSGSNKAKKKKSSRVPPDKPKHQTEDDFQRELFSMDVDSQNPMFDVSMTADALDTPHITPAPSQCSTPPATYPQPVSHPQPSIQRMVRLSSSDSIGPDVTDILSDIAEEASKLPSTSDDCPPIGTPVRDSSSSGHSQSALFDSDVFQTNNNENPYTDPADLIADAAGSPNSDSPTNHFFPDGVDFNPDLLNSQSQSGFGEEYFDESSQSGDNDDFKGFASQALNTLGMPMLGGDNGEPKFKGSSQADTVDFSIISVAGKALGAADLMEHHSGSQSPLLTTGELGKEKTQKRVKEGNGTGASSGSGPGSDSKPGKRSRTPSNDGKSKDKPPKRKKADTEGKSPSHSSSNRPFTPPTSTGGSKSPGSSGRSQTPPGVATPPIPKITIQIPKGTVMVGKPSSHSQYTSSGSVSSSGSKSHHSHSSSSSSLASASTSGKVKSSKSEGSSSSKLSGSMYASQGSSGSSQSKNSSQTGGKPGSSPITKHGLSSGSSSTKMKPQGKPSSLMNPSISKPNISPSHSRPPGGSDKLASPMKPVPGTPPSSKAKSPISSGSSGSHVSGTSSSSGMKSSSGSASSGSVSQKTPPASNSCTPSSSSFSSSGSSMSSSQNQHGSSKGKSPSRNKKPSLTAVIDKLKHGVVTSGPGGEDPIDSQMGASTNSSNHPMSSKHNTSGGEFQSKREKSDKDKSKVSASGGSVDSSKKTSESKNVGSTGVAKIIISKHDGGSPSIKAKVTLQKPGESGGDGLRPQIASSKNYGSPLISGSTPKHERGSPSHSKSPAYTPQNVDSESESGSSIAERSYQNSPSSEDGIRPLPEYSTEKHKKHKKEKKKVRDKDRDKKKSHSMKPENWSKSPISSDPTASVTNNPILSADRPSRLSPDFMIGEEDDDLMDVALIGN

## B1
MED1
  binding result: binds

## B2
MED1
  binding result: binds

## B3
MED27
  binding result: binds
MED17
  binding result: binds

## B4
MED23
  binding result: binds
MED24
  binding result: binds
